Consider three molecules from patent US20170051068A1 (Janssen / Centocor, published 2017).

A word on the Kd: it is the free concentration of one partner at which half of the binding sites on the other are occupied at equilibrium, for simple one-to-one binding. A high value points to weaker binding. Usually koff stands for the first-order rate constant of dissociation. A higher koff goes with a short-lived complex. For orientation: kon means the second-order rate constant of association. A higher kon goes with faster complex formation.

T1: monomeric human BCMA (human, UniProt Q02223 1-54, limits assumed)
T1 construct: also called monomeric BCMA antigen
T1 sequence: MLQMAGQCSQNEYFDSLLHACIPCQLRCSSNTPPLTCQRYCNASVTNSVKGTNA

B1: BCMB128 (antibody, human IgG4 S228P, lambda, F234A L235A, V domains shown)
VH: QLQLQESGPGLVKPSETLSLTCTVSGGSISSGSYFWGWIRQPPGKGLEWIGSIYYSGITYYNPSLKSRVTISVDTSKNQFSLKLSSVTAADTAVYYCARHDGATAGLFDYWGQGTLVTVSS
VL: SYVLTQPPSVSVAPGQTARITCGGNNIGSKSVHWYQQPPGQAPVVVVYDDSDRPSGIPERFSGSNSGNTATLTISRVEAGDEAVYYCQVWDSSSDHVVFGGGTKLTVLG
notes: IgG4 S228P, L234A, L235A; also called BCBM128
B2: BCMB129 (antibody, human IgG4 S228P, lambda, F234A L235A, V domains shown)
VH: QLQLQESGPGLVKPSETLSLTCTVSGGSISSGSYFWGWIRQPPGKGLEWIGSIYYSGSTYYNPSLKSRVTISVDTSKNQFSLKLSSVTAADTAVYYCARHDGAVAGLFDYWGQGTLVTVSS
VL: SYVLTQPPSVSVAPGQTARITCGGNNIGSKSVHWYQQPPGQAPVVVVYDDSDRPSGIPERFSGSNSGNTATLTISRVEAGDEAVYYCQVWDSSSDHVVFGGGTKLTVLG
notes: IgG4 S228P, L234A, L235A; also called BCBM129
B3: BCMB176 (antibody, human IgG4 S228P, lambda, F234A L235A, V domains shown)
VH: QLQLQESGPGLVKPSETLSLTCTVSGGSISSSSYFWGWIRQPPGKGLEWIGSIYYSGITYYNPSLKSRVTISVDTSKNQFSLKLSSVTAADTAVYYCARHDGATAGLFDYWGQGTLVTVSS
VL: SYVLTQPPSVSVAPGQTARITCGGNNIGSKSVHWYQQPPGQAPVVVVYDDSDRPSGIPERFSGSNSGNTATLTISRVEAGDEAVYYCQVWDSSSDHVVFGGGTKLTVLG
notes: IgG4 S228P, L234A, L235A; also called BCBM176

The target of the assay is T1, monomeric human BCMA. The assay can be described thus: SPR, monomeric human BCMA. On the technique in general: SPR reads the build-up and loss of mass on a sensor chip optically.
B1: the Kd came to 2.07 nM, the koff was determined as 0.0087 s⁻¹ and the kon was 4.2e+06 M⁻¹ s⁻¹.
B2 came in with a Kd of 5.47 nM, a koff of 0.00843 s⁻¹ and a kon of 1.54e+06 M⁻¹ s⁻¹.
In turn, B3 gave a Kd of 7.18 nM, a koff of 0.0288 s⁻¹ and a kon of 4e+06 M⁻¹ s⁻¹.
